According to US12180485B2, “Repressible control of gene expression” (TRUSTEES OF BOSTON UNIVERSITY, priority 2020, dated 2024):

Test system: mCherry expression in HEK293 FT cells
Test: Inducible split RfxCas13d (GIB, RAP, ABA, Dano, GRZ CID domains; NES/NLS variants) mCherry knockdown, leakiness and inducibility
Assay type: cell-based
Conditions: inducible polypeptide systems of Tables 18-22
Source text: FIG. 6A-6C is a series of schematics and graphs showing that split RfxCas13d's reconstituted and functioned to knockdown mCherry expression in HEK293 FT cells FIG. 6A is a schematic showing split sites selected throughout RfxCas13d sequence. FIG. 6B is a bar graph showing mCherry expression under 4 conditions for gibberellin-inducible, rapalog-inducible, and abscisic acid-inducible inducible split Cas13d designs. In FIG. 6B and FIG. 6C, the left-right order of the bars for each split site is the same as the left-right order of the legend for each bar graph.
FIG. 7A-7E is a series of schematics and graphs showing a functional and inducible split Cas13d design. FIG. 7A is a bar graph showing additional split sites selected in RfxCas13d and tested with GIB CID domains. […] In FIG. 7A and FIG. 7C, the left-right order of the bars for each split site is the same as the left-right order of the legend. FIG. 7B is a schematic showing the design to compartmentalize splits. Compartmentalizing moieties facilitates the reduction of leakiness. […] FIG. 7D is a schematic showing the experiment flow for testing reversibility of the inducible split Cas13d's.
FIG. 8A-8B is a series of schematics and graphs showing that split RfxCas13d's reconstituted upon drug-induced dimerization and knocked down mCherry expression in HEK293 FT cells. FIG. 8A is a bar graph showing quantification of system performance. The left-right order of the bars for each split site is the same as the top-down order of the legend. […] System performance in leakiness score (left axis) and induced activity (right axis) by GIB, RAP, ABA, and Dano-inducible split Cas13d designs.
FIG. 10A-10B is a series of schematics and graphs showing performance optimization through separating split Cas13d moieties in different cellular compartments. […] The left-right order of the bars for each bar graph is the same as the top-down order of the legend.
FIG. 11 is a series of schematics and graphs showing the testing of reversed orientation (dark grey dots) of CID domains with respect to split Cas13d pieces against original orientations (light grey dots) designed for GIB, ABA, Dano, and GRZ inducible systems.

B1: SEQ ID NO: 770: inducible system polypeptide, probably Table 20 (GID-GAI) (protein)
chain: MKRDHHHHHHQDKKTMMMNEEDDGNGMDELLAVLGYKVRSSEMADVAQKLEQLEVMMSNVQEDDLSQLATETVHYNPAELYTWLDSMLTDLNSGGSGSGSSGGSGTDNEYISTLNYLYDRITNELTNSFSKNSAANVNYIAETLGINPAEFAEQYFRFSIMKEQKNLGFNITKLREVMLDRKDMSEIRKNHKVFDSIRTKVYTMMDFVIYRYYIEEDAKVAAANKSLPDNEKSLSEKDIFVINLRGSFNDDQKDALYYDEANRIWRKLENIMHNIKEFRGNKTREYKKKDAPRLPRILPAGRDVSAFSKLMYALTMFLDGKEINDLLTTLINKFDNIQSFLKVMPLIGVNAKFVEEYAFFKDSAKIADELRLIKSFARMGEPIADARRAMYIDAIRILGTNLSYDELKALADTFSLDENGNKLKKGKHGMRNFIINNVISNKRFHYLIRYGDPAHLHEIAKNEAVVKFVLGRIADIQKKQGQNGKNQIDRYYETCIGKDKGKSVSEKVDALTKIITGMNYDQFDKKRSVIEDTGRENAEREKFKKIISLYLTVIYHILKNIVNINARYVIGFHCVERDAQLYKEKGYDINLKKLEEKGFSSVTKLCAGIDETAPDKRKDVEKEMAERAKESIDSLESANPKLYANYIKYSDEKKAEEFTRQINREKAKTALNAYLRNTKWNVIIREDLLRIDNKTCTLFRNKAVHLEVARYVHAYINDIAEVNSYFQLYHYIMQRIIMNERYEKSSGKVSEYFDAVNDEKKYNDRLLKLLCVPFGYCIPRFKNLSIEALFDRNEAAKFDKEKKKVSGNSGSGPKKKRKV
performance in the tested conditions: highest performance

B2: SEQ ID NO: 792: inducible system polypeptide, probably Table 20 (GID-GAI) (protein)
chain: MAPKKKRKVGIHGVPAAKRDHHHHHHQDKKTMMMNEEDDGNGMDELLAVLGYKVRSSEMADVAQKLEQLEVMMSNVQEDDLSQLATETVHYNPAELYTWLDSMLTDLNSGGSGSGSSGGSGTGPVQQDMLGLKETLEKRYFGESADGNDNICIQVIHNILDIEKILAEYITNAAYAVNNISGLDKDIIGFGKFSTVYTYDEFKDPEHHRAAFNNNDKLINAIKAQYDEFDNFLDNPRLGYFGQAFFSKEGRNYIINYGNECYDILALLSGLRHWVVHNNEEESRISRTWLYNLDKNLDNEYISTLNYLYDRITNELTNSFSKNSAANVNYIAETLGINPAEFAEQYFRFSIMKEQKNLGFNITKLREVMLDRKDMSEIRKNHKVFDSIRTKVYTMMDFVIYRYYIEEDAKVAAANKSLPDNEKSLSEKDIFVINLRGSFNDDQKDALYYDEANRIWRKLENIMHNIKEFRGNKTREYKKKDAPRLPRILPAGRDVSAFSKLMYALTMFLDGKEINDLLTTLINKFDNIQSFLKVMPLIGVNAKFVEEYAFFKDSAKIADELRLIKSFARMGEPIADARRAMYIDAIRILGTNLSYDELKALADTFSLDENGNKLKKGKHGMRNFIINNVISNKRFHYLIRYGDPAHLHEIAKNEAVVKFVLGRIADIQKKQGQNGKNQIDRYYETCIGKDKGKSVSEKVDALTKIITGMNYDQFDKKRSVIEDTGRENAEREKFKKIISLYLTVIYHILKNIVNINARYVIGFHCVERDAQLYKEKGYDINLKKLEEKGFSSVTKLCAGIDETAPDKRKDVEKEMAERAKESIDSLESANPKLYANYIKYSDEKKAEEFTRQINREKAKTALNAYLRNTKWNVIIREDLLRIDNKTCTLFRNKAVHLEVARYVHAYINDIAEVNSYFQLYHYIMQRIIMNERYEKSSGKVSEYFDAVNDEKKYNDRLLKLLCVPFGYCIPRFKNLSIEALFDRNEAAKFDKEKKKVSGNSGSGPKKKRKV
performance in the tested conditions: highest performance

B3: SEQ ID NO: 392: PV1-Cas13 N507-L1-PYL-NLS-BGHpA (protein)
chain: MIEKKKSFAKGMGVKSTLVSGSKVYMTTFAEGSDARLEKIVEGDSIRSVNEGEAFSAEMADKNAGYKIGNAKFSHPKGYAVVANNPLYTGPVQQDMLGLKETLEKRYFGESADGNDNICIQVIHNILDIEKILAEYITNAAYAVNNISGLDKDIIGFGKFSTVYTYDEFKDPEHHRAAFNNNDKLINAIKAQYDEFDNFLDNPRLGYFGQAFFSKEGRNYIINYGNECYDILALLSGLRHWVVHNNEEESRISRTWLYNLDKNLDNEYISTLNYLYDRITNELTNSFSKNSAANVNYIAETLGINPAEFAEQYFRFSIMKEQKNLGFNITKLREVMLDRKDMSEIRKNHKVFDSIRTKVYTMMDFVIYRYYIEEDAKVAAANKSLPDNEKSLSEKDIFVINLRGSFNDDQKDALYYDEANRIWRKLENIMHNIKEFRGNKTREYKKKDAPRLPRILPAGRDVSAFSKLMYALTMFLDGKEINDLLTTLINKFDNIQSFLKVMPLIGVNSGGSGSGSSGGSGTAPTQDEFTQLSQSIAEFHTYQLGNGRCSSLLAQRIHAPPETVWSVVRRFDRPQIYKHFIKSCNVSEDFEMRVGCTRDVNVISGLPANTSRERLDLLDDDRRVTGFSITGGEHRLRNYKSVTTVHRFEKEEEEERIWTVVLESYVVDVPEGNSEEDTRLFADTVIRLNLQKLASITEAMNYPYDVPDYAPKKKRKV
performance in the tested conditions: highest performance

B4: SEQ ID NO: 793: inducible system polypeptide, probably Table 20 (GID-GAI) (protein)
chain: MLDLASLILIEKKKSFAKGMGVKSTLVSGSKVYMTTFAEGSDARLEKIVEGDSIRSVNEGEAFSAEMADKNAGYKIGNAKFSHPKGYAVVANNPLYTSGGSGSGSSGGSGTMAASDEVNLIESRTVVPLNTWVLISNFKVAYNILRRPDGTFNRHLAEYLDRKVTANANPVDGVFSFDVLIDRRINLLSRVYRPAYADQEQPPSILDLEKPVDGDIVPVILFFHGGSFAHSSANSAIYDTLCRRLVGLCKCVVVSVNYRRAPENPYPCAYDDGWIALNWVNSRSWLKSKKDSKVHIFLAGDSSGGNIAHNVALRAGESGIDVLGNILLNPMFGGNERTESEKSLDGKYFVTVRDRDWYWKAFLPEGEDREHPACNPFSPRGKSLEGVSFPKSLVVVAGLDLIRDWQLAYAEGLKKAGQEVKLMHLEKATVGFYLLPNNNHFHNVMDEISAFVNAECLDLASLIL
performance in the tested conditions: highest performance

B5: SEQ ID NO: 769: inducible system polypeptide, probably Table 20 (GID-GAI) (protein)
chain: MIEKKKSFAKGMGVKSTLVSGSKVYMTTFAEGSDARLEKIVEGDSIRSVNEGEAFSAEMADKNAGYKIGNAKFSHPKGYAVVANNPLYTGPVQQDMLGLKETLEKRYFGESADGNDNICIQVIHNILDIEKILAEYITNAAYAVNNISGLDKDIIGFGKFSTVYTYDEFKDPEHHRAAFNNNDKLINAIKAQYDEFDNFLDNPRLGYFGQAFFSKEGRNYIINYGNECYDILALLSGLRHWVVHNNEEESRISRTWLYNLDKNLSGGSGSGSSGGSGTMAASDEVNLIESRTVVPLNTWVLISNFKVAYNILRRPDGTFNRHLAEYLDRKVTANANPVDGVFSFDVLIDRRINLLSRVYRPAYADQEQPPSILDLEKPVDGDIVPVILFFHGGSFAHSSANSAIYDTLCRRLVGLCKCVVVSVNYRRAPENPYPCAYDDGWIALNWVNSRSWLKSKKDSKVHIFLAGDSSGGNIAHNVALRAGESGIDVLGNILLNPMFGGNERTESEKSLDGKYFVTVRDRDWYWKAFLPEGEDREHPACNPFSPRGKSLEGVSFPKSLVVVAGLDLIRDWQLAYAEGLKKAGQEVKLMHLEKATVGFYLLPNNNHFHNVMDEISAFVNAECPKKKRKV
performance in the tested conditions: highest performance

B6: SEQ ID NO: 796: inducible system polypeptide, probably Table 20 (GID-GAI) (protein)
chain: MAPKKKRKVGIHGVPAAKRDHHHHHHQDKKTMMMNEEDDGNGMDELLAVLGYKVRSSEMADVAQKLEQLEVMMSNVQEDDLSQLATETVHYNPAELYTWLDSMLTDLNSGGSGSGSSGGSGTSYDELKALADTFSLDENGNKLKKGKHGMRNFIINNVISNKRFHYLIRYGDPAHLHEIAKNEAVVKFVLGRIADIQKKQGQNGKNQIDRYYETCIGKDKGKSVSEKVDALTKIITGMNYDQFDKKRSVIEDTGRENAEREKFKKIISLYLTVIYHILKNIVNINARYVIGFHCVERDAQLYKEKGYDINLKKLEEKGFSSVTKLCAGIDETAPDKRKDVEKEMAERAKESIDSLESANPKLYANYIKYSDEKKAEEFTRQINREKAKTALNAYLRNTKWNVIIREDLLRIDNKTCTLFRNKAVHLEVARYVHAYINDIAEVNSYFQLYHYIMQRIIMNERYEKSSGKVSEYFDAVNDEKKYNDRLLKLLCVPFGYCIPRFKNLSIEALFDRNEAAKFDKEKKKVSGNSGSGPKKKRKV
performance in the tested conditions: highest performance
